Data as given in patent US6740638.

Target: rat MHC class II molecules on Lewis rat splenic adherent cells (antigen presenting cells) (rat)
Test: competition with 10 µM biotin-labeled MBP (87-99) for binding to OX-6/OX-17 positive rat splenic adherent cells, flow cytometry

## MBP (87-99) peptide analogue with alanine at position 91 (91K>A)
  IC50: 21 µM
